Laboratory results taken from PMC6735921.
Where two headings read alike, the source gives them in different places.

Experiments:
[1] = target: T1, VEGF165 (VEGF-A isoform 165) (UniProt P15692-4 27-191); test: EMSA
[2] = target: T1, VEGF165 (VEGF-A isoform 165); test: EMSA; remark: listed apart in the source

Row | Binder | binding result [1] | binding result [2]
1 | TGTGGGGGTGGACGGGCCGGGTAGA (structured_DNA) [V7t1 not-annealed (about 73% dimer, 26% monomer)] | binds | 
2 | TGTGGGGGTGGACGGGCCGGGTAGA (structured_DNA) [V7t1 dimer (purified SE-HPLC peak 1)] |  | binds
